Values quoted from earlier work in PMC7883480.

Legend:
CXCR4 (Homo sapiens) = CXCR4 (Homo sapiens) (UniProt P61073); test: radioligand competitive displacement
[1] = molecular target: GIP receptor (Homo sapiens) (UniProt P48546); test: competitive binding assay
[2] = molecular target: GLP-1 receptor (Homo sapiens) (UniProt P43220); test: SPA binding assay

Kd (CXCR4 (Homo sapiens)) [nM]	Ki [1] [nM]	Ki [2] [nM]	Substance
1.44			CXCL12 1-68 (from UniProt P48061)
464			CXCL12 3-68 (from UniProt P48061)
	2.3		GIP 3-30 (from UniProt P09681)
	0.89		GIP 1-30 (from UniProt P09681)
		156	GLP-1 9-36 (from UniProt P01275)
		0.102	GLP-1 7-36 (from UniProt P01275)
